{
  "source": "patent US20170355765A1",
  "about": "(published 2017)",
  "binders": {"B1": {"name": "antibody drug conjugate including the m825 antibody (in human IgG1 format) conjugated to MMAE (other)", "VH": "QVQLVQSGAEVKKPGTSVKVSCKVPGYTFSSYAISWVRQAPGQGLEWMGGIIPIFGTTNYAQKFQGRVTITGEESTSTVYMELSSLRSEDTAVYYCARDTDYMFDYWGQGTLVTVSS", "VL": "SSELTQDPVVSVALGETVSITCQGDNLRDFYASWYQQKPGQAPLLVMYGKNRRPSGIPDRFSGSTSGNTLSLTITGAQAEDEADYYCSSRDNSKHVVFGGGTKVTVL", "modifications": "MMAE toxin with stretcher unit, Val-Cit peptide cleavage site and spacer, linked to thiol groups formed by partial reduction of inter-chain disulfide bonds (positions not stated)", "notes": "also called m825-MMAE; m825-MMAE conjugate"}},
  "biological_target": "T1, human TEM8 expressed on CHO or HEK 293 cells (human, UniProt Q9H6X2 33-564)",
  "T1 construct": "also called hTEM8; CHO TEM8",
  "T1 sequence (Q9H6X2 33-564 limits assumed)": "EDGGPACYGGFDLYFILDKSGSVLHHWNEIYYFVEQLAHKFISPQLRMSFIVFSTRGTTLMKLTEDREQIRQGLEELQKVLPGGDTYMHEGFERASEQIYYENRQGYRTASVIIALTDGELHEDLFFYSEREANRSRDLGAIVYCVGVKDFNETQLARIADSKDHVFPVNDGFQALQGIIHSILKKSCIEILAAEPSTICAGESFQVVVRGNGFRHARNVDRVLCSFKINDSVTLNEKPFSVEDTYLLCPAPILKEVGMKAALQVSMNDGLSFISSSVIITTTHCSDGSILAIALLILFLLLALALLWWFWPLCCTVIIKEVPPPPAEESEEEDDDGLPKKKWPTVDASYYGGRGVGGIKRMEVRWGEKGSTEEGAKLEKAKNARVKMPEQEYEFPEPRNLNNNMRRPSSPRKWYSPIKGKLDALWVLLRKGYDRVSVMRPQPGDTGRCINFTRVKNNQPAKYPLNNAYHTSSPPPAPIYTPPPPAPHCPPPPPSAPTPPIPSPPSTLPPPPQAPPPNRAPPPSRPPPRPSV",
  "assay": "binding to CHO cells expressing human TEM8",
  "data": [
    {"binder": "B1", "values": [
      {"measurement": "binding result", "result": "binds"}
    ]}
  ]
}
